From article PMC5669500, “Scaffolding the cup-shaped double membrane in autophagy” (PLoS Computational Biology, 2017)
Changes are numbered by the printed parent chain.

Tests used:
Test in all cases: pull-down; 20 μg GST-Atg13 (351–458) immobilised on 30 μL Glutathione Sepharose 4B; Atg17-Atg31-Atg29 complex at 10 μM; 4°C, 1 hour; 20 mM Tris pH 8, 150 mM NaCl, 0.1 mM TCEP; 3 washes; SDS-PAGE
Conditions in all cases: both partners purified
[1] = target: T1, Atg17-Atg31-Atg29 complex with Atg17 mutant M1 (K318D/Q326D/K329D) (Saccharomyces cerevisiae, UniProt Q06410 1-417; Q12421 1-196; Q12092 1-213, K318D | Q326D | K329D)
T1 construct: Atg17, Saccharomyces cerevisiae; Atg31, Saccharomyces cerevisiae; Atg29, Saccharomyces cerevisiae; a TEV cleavage site follows the His6 tag; Mutations introduced into the Atg17-Atg31-Atg29 construct by quick-change mutagenesis; source: E. coli BL21 (DE3), co-expressed from pST39, purified (Ni-NTA, Superose 6); copies: 2 + +
T1 sequence (looked up) 1: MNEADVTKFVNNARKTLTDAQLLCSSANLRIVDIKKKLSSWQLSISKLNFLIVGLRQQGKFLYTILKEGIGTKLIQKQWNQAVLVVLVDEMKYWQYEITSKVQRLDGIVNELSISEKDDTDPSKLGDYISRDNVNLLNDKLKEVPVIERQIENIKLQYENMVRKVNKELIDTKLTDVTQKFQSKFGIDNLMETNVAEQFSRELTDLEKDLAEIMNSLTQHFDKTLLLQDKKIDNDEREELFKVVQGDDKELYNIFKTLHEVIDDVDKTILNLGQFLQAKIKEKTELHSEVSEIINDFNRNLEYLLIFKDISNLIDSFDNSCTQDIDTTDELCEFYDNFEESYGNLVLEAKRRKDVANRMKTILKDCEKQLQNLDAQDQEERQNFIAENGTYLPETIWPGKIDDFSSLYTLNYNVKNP
T1 sequence (looked up) 2: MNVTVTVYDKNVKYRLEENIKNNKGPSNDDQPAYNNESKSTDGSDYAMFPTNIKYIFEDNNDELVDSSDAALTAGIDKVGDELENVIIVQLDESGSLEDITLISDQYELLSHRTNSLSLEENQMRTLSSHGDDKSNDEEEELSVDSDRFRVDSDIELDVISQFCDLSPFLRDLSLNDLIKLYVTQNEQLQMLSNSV
T1 sequence (looked up) 3: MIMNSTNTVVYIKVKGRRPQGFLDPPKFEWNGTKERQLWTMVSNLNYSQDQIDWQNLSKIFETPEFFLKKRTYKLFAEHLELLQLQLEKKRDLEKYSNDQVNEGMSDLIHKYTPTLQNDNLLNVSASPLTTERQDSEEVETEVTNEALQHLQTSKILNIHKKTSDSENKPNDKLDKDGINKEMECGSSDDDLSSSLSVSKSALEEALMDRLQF

[2] = target: T2, Atg17-Atg31-Atg29 complex with Atg17 mutant M2 (K318D/K329D/Y93E/W94E) (Saccharomyces cerevisiae, UniProt Q06410 1-417; Q12421 1-196; Q12092 1-213, K318D | K329D | Y93E | W94E)
T2 construct: Atg17, Saccharomyces cerevisiae; Atg31, Saccharomyces cerevisiae; Atg29, Saccharomyces cerevisiae; a TEV cleavage site follows the His6 tag; Mutations introduced into the Atg17-Atg31-Atg29 construct by quick-change mutagenesis; source: E. coli BL21 (DE3), co-expressed from pST39, purified (Ni-NTA, Superose 6); copies: 2 + +
T2 sequence (looked up) 1: T1 sequence (looked up) 1 with Y93E, W94E, D326Q
T2 sequence (looked up) 2: T1 sequence (looked up) 2
T2 sequence (looked up) 3: T1 sequence (looked up) 3

[3] = target: T3, Atg17-Atg31-Atg29 complex with Atg17 mutant M3 (K8D/R14D/K249D) (Saccharomyces cerevisiae, UniProt Q06410 1-417; Q12421 1-196; Q12092 1-213, K8D | R14D | K249D)
T3 construct: Atg17, Saccharomyces cerevisiae; Atg31, Saccharomyces cerevisiae; Atg29, Saccharomyces cerevisiae; a TEV cleavage site follows the His6 tag; Mutations introduced into the Atg17-Atg31-Atg29 construct by quick-change mutagenesis; source: E. coli BL21 (DE3), co-expressed from pST39, purified (Ni-NTA, Superose 6); copies: 2 + +
T3 sequence (looked up) 1: T1 sequence (looked up) 1 with K8D, R14D, K249D, D318K, D326Q, D329K
T3 sequence (looked up) 2: T1 sequence (looked up) 2
T3 sequence (looked up) 3: T1 sequence (looked up) 3

Measured: binding result

B1: GST-Atg13 (351–458) (domain or fragment, Saccharomyces cerevisiae, UniProt Q06628 351-458, looked up)
chain: TRANSFEPQSWQKKVYPISRPVQPFKVGSIGSQSASRNPSNSSFFNQPPVHRPSMSSNYGPQMNIEGTSVGSTSKYSSSFGNIRRHSSVKTTENAEKVSKAVKSPLQP
notes: a TEV cleavage site follows the GST tag; source: recombinant from pGST2 vector, purified (Glutathione Sepharose 4B, HiLoad Superdex 200 16/60); not shown: GST, N-terminal, kept
binds: [1] | [2] | [3]
